The experiment has as its target Escherichia coli CTP synthase (ecCTPS), wild type (Escherichia coli) (UniProt P0A7E5). Kind of experiment: cryo-EM structure.

“Escherichia coli CTP synthase (ecCTPS), wild type (from UniProt P0A7E5 1-545) (enzyme)”: the stoichiometry N came to 4.

In general, stoichiometry N refers to a count of units in the complex or per binding partner.

Values taken from article doi:10.1101/2023.10.19.563106.
